Measured values as given in patent publication US20190135928A1 (Bristol-Myers Squibb, published 2019).

Tests used:
Assay in all cases: cell-based or functional assay
[1] = target: T1, human TL1A (in-house) (human, UniProt O95150 57-251, limits assumed)
T1 sequence: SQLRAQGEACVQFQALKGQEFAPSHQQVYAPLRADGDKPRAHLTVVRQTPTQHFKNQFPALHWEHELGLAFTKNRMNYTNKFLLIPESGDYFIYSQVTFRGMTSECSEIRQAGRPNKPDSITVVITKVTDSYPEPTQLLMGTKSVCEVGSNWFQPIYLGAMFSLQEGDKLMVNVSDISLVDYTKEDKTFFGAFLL

[2] = target: T1, human TL1A (in-house); remark: listed apart in the source
[3] = target: T1, human TL1A (in-house); remark: listed apart in the source
[4] = target: T1, human TL1A (in-house); remark: listed apart in the source
[5] = target: T1, human TL1A (in-house); remark: listed apart in the source

B1: TL1A antibody 10A4.F7.2E8 huIgG4 (antibody, V domains shown)
VH: QLQLQESGPGLVKPSETLSLTCTVSGGSISSRSYYWGWIRQPPGKGLEWIGSIYYNGRTYYNPSLKSRVTISVDTSKNQFSLKLSSVTAADTAVYYCAREDYGDYGAFDIWGQGTMVTVSS
VL: AIQLTQSPSSLSASVGDRVTITCRASQGISSALAWYQQKPGKAPKLLIYDASSLESGVPSRFSGSGSGTDFTLTISSLQPEDFATYYCQQFNSYPLTFGGGTKVEIKR
EC50, TL1A + IL-12 + IL-18 driven IFNg (Hu Tcells) (5.9 mg/ml), Donor A, ELN ref 99932-004774 [1]: 0.171 nM | EC50, TL1A + IL-12 + IL-18 driven IFNg (Hu Tcells) (5.9 mg/ml), Donor A, ELN ref 99932-004955 [1]: 0.273 nM | EC50, TL1A + IL-12 + IL-18 driven IFNg (Hu Tcells) (5.9 mg/ml), Donor B, ELN ref 99932-004774 [1]: 0.243 nM | EC50, TL1A + IL-12 + IL-18 driven IFNg (Hu Tcells) (5.9 mg/ml), Donor B, ELN ref 99932-004955 [1]: 0.182 nM | EC50, TL1A + IL-12 + IL-18 driven IFNg (Hu WB)(2.45 mg/ml), Donor A, ELN ref 97305-029 [2]: 0.32 nM | EC50, TL1A + IL-12 + IL-18 driven IFNg (Hu WB)(2.45 mg/ml), Donor A, ELN ref 97305-033 [2]: 0.284 nM | EC50, TL1A + IL-12 + IL-18 driven IFNg (Hu WB)(2.45 mg/ml), Donor B, ELN ref 97305-029 [2]: 0.54 nM | EC50, TL1A + IL-12 + IL-18 driven IFNg (Hu WB)(2.45 mg/ml), Donor B, ELN ref 97305-033 [2]: 0.108 nM | EC50, TL1A + IL-12 + IL-18 driven IFNg (Hu Tcells) (4.8 mg/ml), Donor A, ELN ref 97305-082 [3]: 0.162 nM | EC50, TL1A + IL-12 + IL-18 driven IFNg (Hu Tcells) (4.8 mg/ml), Donor A, ELN ref 99932-003797 [3]: 0.303 nM | EC50, TL1A + IL-12 + IL-18 driven IFNg (Hu Tcells) (4.8 mg/ml), Donor A, ELN ref 99932-004083 [3]: 0.27 nM | EC50, TL1A + IL-12 + IL-18 driven IFNg (Hu Tcells) (4.8 mg/ml), Donor A, ELN ref 99932-004084 [3]: 0.316 nM | EC50, TL1A + IL-12 + IL-18 driven IFNg (Hu Tcells) (4.8 mg/ml), Donor A, ELN ref 99932-004439 [3]: 0.262 nM | EC50, TL1A + IL-12 + IL-18 driven IFNg (Hu Tcells) (4.8 mg/ml), Donor A, ELN ref 99932-004774 [3]: 0.177 nM | EC50, TL1A + IL-12 + IL-18 driven IFNg (Hu Tcells) (4.8 mg/ml), Donor A, ELN ref 99932-004955 [3]: 0.193 nM | EC50, TL1A + IL-12 + IL-18 driven IFNg (Hu Tcells) (4.8 mg/ml), Donor A, ELN ref 99932-005751 [3]: 0.216 nM | EC50, TL1A + IL-12 + IL-18 driven IFNg (Hu Tcells) (4.8 mg/ml), Donor B, ELN ref 97305-082 [3]: 0.143 nM | EC50, TL1A + IL-12 + IL-18 driven IFNg (Hu Tcells) (4.8 mg/ml), Donor B, ELN ref 99932-003797 [3]: 0.361 nM | EC50, TL1A + IL-12 + IL-18 driven IFNg (Hu Tcells) (4.8 mg/ml), Donor B, ELN ref 99932-004084 [3]: 0.345 nM | EC50, TL1A + IL-12 + IL-18 driven IFNg (Hu Tcells) (4.8 mg/ml), Donor B, ELN ref 99932-004439 [3]: 0.157 nM | EC50, TL1A + IL-12 + IL-18 driven IFNg (Hu Tcells) (4.8 mg/ml), Donor B, ELN ref 99932-004774 [3]: 0.267 nM | EC50, TL1A + IL-12 + IL-18 driven IFNg (Hu Tcells) (4.8 mg/ml), Donor B, ELN ref 99932-004955 [3]: 0.287 nM | EC50, TL1A + IL-12 + IL-18 driven IFNg (Hu Tcells) (4.8 mg/ml), Donor B, ELN ref 99932-005751 [3]: 0.138 nM | EC50, TL1A + IL-12 + IL-18 driven IFNg (Hu PBMCs) (5.9 mg/ml), Donor A, ELN ref 99932-005481 [4]: 0.295 nM | EC50, TL1A + IL-12 + IL-18 driven IFNg (Hu PBMCs) (5.9 mg/ml), Donor B, ELN ref 99932-005481 [4]: 0.241 nM | EC50, TL1A + IL-12 + IL-18 driven IFNg (Hu PBMCs) (2.45 mg/ml), Donor A, ELN ref 97305-032 [5]: 0.131 nM | EC50, TL1A + IL-12 + IL-18 driven IFNg (Hu PBMCs) (2.45 mg/ml), Donor A, ELN ref 97305-037 [5]: 0.138 nM | EC50, TL1A + IL-12 + IL-18 driven IFNg (Hu PBMCs) (2.45 mg/ml), Donor A, ELN ref 97305-040 [5]: 0.167 nM | EC50, TL1A + IL-12 + IL-18 driven IFNg (Hu PBMCs) (2.45 mg/ml), Donor A, ELN ref 97305-041 [5]: 0.209 nM | EC50, TL1A + IL-12 + IL-18 driven IFNg (Hu PBMCs) (2.45 mg/ml), Donor A, ELN ref 97305-044 [5]: 0.272 nM | EC50, TL1A + IL-12 + IL-18 driven IFNg (Hu PBMCs) (2.45 mg/ml), Donor A, ELN ref 97305-047 [5]: 0.095 nM | EC50, TL1A + IL-12 + IL-18 driven IFNg (Hu PBMCs) (2.45 mg/ml), Donor A, ELN ref 97305-050 [5]: 0.209 nM | EC50, TL1A + IL-12 + IL-18 driven IFNg (Hu PBMCs) (2.45 mg/ml), Donor A, ELN ref 97305-061 [5]: 0.26 nM | EC50, TL1A + IL-12 + IL-18 driven IFNg (Hu PBMCs) (2.45 mg/ml), Donor A, ELN ref 99932-005481 [5]: 0.301 nM | EC50, TL1A + IL-12 + IL-18 driven IFNg (Hu PBMCs) (2.45 mg/ml), Donor B, ELN ref 97305-032 [5]: 0.197 nM | EC50, TL1A + IL-12 + IL-18 driven IFNg (Hu PBMCs) (2.45 mg/ml), Donor B, ELN ref 97305-037 [5]: 0.289 nM | EC50, TL1A + IL-12 + IL-18 driven IFNg (Hu PBMCs) (2.45 mg/ml), Donor B, ELN ref 97305-040 [5]: 0.146 nM | EC50, TL1A + IL-12 + IL-18 driven IFNg (Hu PBMCs) (2.45 mg/ml), Donor B, ELN ref 97305-041 [5]: 0.283 nM | EC50, TL1A + IL-12 + IL-18 driven IFNg (Hu PBMCs) (2.45 mg/ml), Donor B, ELN ref 97305-044 [5]: 0.211 nM | EC50, TL1A + IL-12 + IL-18 driven IFNg (Hu PBMCs) (2.45 mg/ml), Donor B, ELN ref 97305-047 [5]: 0.185 nM | EC50, TL1A + IL-12 + IL-18 driven IFNg (Hu PBMCs) (2.45 mg/ml), Donor B, ELN ref 97305-050 [5]: 0.163 nM | EC50, TL1A + IL-12 + IL-18 driven IFNg (Hu PBMCs) (2.45 mg/ml), Donor B, ELN ref 97305-061 [5]: 0.152 nM | EC50, TL1A + IL-12 + IL-18 driven IFNg (Hu PBMCs) (2.45 mg/ml), Donor B, ELN ref 99932-005481 [5]: 0.196 nM
